Where no end group is shown, it is not given here.
Target: T1, 6×His标签 (组氨酸标签), 人工抗原6×His-OVA (also: covalently coupled to ovalbumin (OVA), chemistry and site not given here)
T1 construct: also called 多组氨酸标签; hexa组氨酸标签
T1 peptide: HHHHHH
Experiment: indirect phage-ELISA of phage-displayed VHH clones after three rounds of panning on 6×His-OVA

B1: 针对His标签的单域重链抗体 (针对组氨酸标签的纳米抗体) (VHH)
VHH: QVQLVESGGGLVQAGGSLRLSCAVSGFTFSANAMSWVRQAPGKGPEWVSSINRGGASAEYADSVKGRFTISRDDAKNTLYLQMNSLKPEDTALYYCARGNYRGSYFNGPRTYWGRGTQVTVSP
notes: From an alpaca (Lama pacos) immune library; also called 抗His标签单域重链抗体
  binding result: binds

Reference: patent publication CN106146655A (UNIV NANCHANG, dated 2016)
